Laboratory results from article PMC8654305.

Target: recombinant C-terminal StrepII-tagged ScSbtB (SbtB from Synechocystis sp. PCC 6803) (Synechocystis sp. PCC 6803), P73954
Assay: crystal structure
Details: remark: other sources report otherwise

B1: recombinant C-terminal StrepII-tagged ScSbtB (SbtB from Synechocystis sp. PCC 6803), P73954 1-110 (natural protein)
chain: MAKPANKLVIVTEKILLKKIAKIIDESGAKGYTVMNTGGKGSRNVRSSGQPNTSDIEANIKFEILTETREMAEEIADRVAVKYFNDYAGIIYICSAEVLYGHTFCGPEGC
Q: For B1, which stoichiometry N is on record?
A: The stoichiometry N was 3.
